*1 amine or outer side, *2 acyl side, *3 side chain or, on linkers, in order; H or OH if unused. Where no end group is shown, it is not given here. Side-chain parts run from the residue outwards. [ ]: non-standard residue; d: D form. The star is where a group is joined. Decanoyl(10-(4-HOOC-PhO)) = O=C(O)c1ccc(OCCCCCCCCCC(=O)*)cc1; αMePhe(2-F) = C[C@](N)(Cc1ccccc1F)C(=O)O; γGlu = O=C(O)[C@H](CCC(=O)[*:2])N[*:1]; C14 diacid = O=C(O)CCCCCCCCCCCCC(=O)*; αMeY = C[C@](N)(Cc1ccc(O)cc1)C(=O)O; 4Pal = N[C@@H](Cc1ccncc1)C(=O)O; αMeL = CC(C)C[C@](C)(N)C(=O)O; Lauroyl = CCCCCCCCCCCC(=O)*; Orn = NCCC[C@H](N)C(=O)O; AEEA = NCCOCCOCC(=O)O; Aib = CC(C)(N)C(=O)O
T1: human GIP receptor (human) (UniProt P48546)
T1 sequence (looked up): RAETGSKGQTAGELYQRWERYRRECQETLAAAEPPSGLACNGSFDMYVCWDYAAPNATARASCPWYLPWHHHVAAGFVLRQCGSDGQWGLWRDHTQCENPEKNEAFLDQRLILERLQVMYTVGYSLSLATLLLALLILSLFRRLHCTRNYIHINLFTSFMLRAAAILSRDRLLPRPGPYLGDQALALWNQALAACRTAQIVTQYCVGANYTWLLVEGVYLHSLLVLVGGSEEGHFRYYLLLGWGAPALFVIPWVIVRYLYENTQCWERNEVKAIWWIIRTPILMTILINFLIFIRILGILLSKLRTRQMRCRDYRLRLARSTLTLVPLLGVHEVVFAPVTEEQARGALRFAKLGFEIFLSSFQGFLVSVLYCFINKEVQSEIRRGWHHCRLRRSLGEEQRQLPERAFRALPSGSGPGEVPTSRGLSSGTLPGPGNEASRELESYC

T2: human GIP receptor (human, UniProt P48546 22-466)
T2 sequence (looked up): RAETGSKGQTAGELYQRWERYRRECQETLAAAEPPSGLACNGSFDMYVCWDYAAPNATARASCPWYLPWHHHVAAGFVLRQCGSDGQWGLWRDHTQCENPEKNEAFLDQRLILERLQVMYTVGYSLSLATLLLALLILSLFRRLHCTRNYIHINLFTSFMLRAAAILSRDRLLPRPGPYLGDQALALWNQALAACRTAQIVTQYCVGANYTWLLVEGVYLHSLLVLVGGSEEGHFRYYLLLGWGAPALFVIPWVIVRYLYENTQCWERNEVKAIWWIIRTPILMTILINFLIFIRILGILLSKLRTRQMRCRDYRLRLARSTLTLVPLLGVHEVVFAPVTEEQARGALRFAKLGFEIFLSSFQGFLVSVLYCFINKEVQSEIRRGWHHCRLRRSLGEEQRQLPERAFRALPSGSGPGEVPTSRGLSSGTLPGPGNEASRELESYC


Key:
Assay in all cases: cell-based or functional assay
[1] = biological target: human glucagon receptor (human) (UniProt P47871)
hGLP-1R = hGLP-1R (Homo sapiens, UniProt P43220)
[2] = biological target: T1, human GIP receptor (human)
human GLP-1 receptor = human GLP-1 receptor (human, UniProt P43220 24-463)
human glucagon receptor = human glucagon receptor (human, UniProt P47871 26-477)
human glucagon receptor, sequence (P47871 26-477): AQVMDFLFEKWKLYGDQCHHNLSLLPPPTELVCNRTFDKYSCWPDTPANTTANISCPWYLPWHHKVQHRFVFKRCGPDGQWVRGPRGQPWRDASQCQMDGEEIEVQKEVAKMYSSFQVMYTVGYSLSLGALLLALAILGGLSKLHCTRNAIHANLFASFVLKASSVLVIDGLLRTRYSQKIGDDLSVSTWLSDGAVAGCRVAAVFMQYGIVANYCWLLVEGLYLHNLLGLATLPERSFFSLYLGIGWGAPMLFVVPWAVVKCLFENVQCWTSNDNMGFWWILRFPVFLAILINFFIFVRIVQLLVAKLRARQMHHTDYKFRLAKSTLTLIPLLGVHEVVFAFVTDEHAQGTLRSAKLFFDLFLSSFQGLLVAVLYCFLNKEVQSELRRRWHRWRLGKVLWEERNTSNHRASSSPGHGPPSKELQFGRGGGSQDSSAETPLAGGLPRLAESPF

human GIP receptor = biological target: T2, human GIP receptor

| Binder | cAMP EC50 [1] [nM] | cAMP EC50 (hGLP-1R) [nM] | cAMP Emax (hGLP-1R) [%] | cAMP EC50 [2] [nM] | cAMP Emax [2] [%] | cAMP EC50 (1.0% HSA) (human GLP-1 receptor) [nM] | cAMP Emax (1.0% HSA) (human GLP-1 receptor) [%] | cAMP EC50 (1.0% HSA) (human glucagon receptor) [nM] | cAMP EC50 (1.0% HSA) (human GIP receptor) [nM] | cAMP Emax (1.0% HSA) (human GIP receptor) [%] |
| --- | --- | --- | --- | --- | --- | --- | --- | --- | --- | --- |
| Y[Aib]EGT[αMePhe(2-F)]TSDV[Aib]I[αMeL]LD[Orn]K([AEEA-γGlu-C14 diacid])AQ[Aib]EFI[dE][αMeY]LIK([AEEA-γGlu-C14 diacid])GGPSSGAPPPS-NH2 (N-terminus assumed; SMILES CC[C@H](C)[C@H](NC(=O)[C@H](CC(C)C)NC(=O)[C@](C)(Cc1ccc(O)cc1)NC(=O)[C@@H](CCC(=O)O)NC(=O)[C@@H](NC(=O)[C@H](Cc1ccccc1)NC(=O)[C@H](CCC(=O)O)NC(=O)C(C)(C)NC(=O)[C@H](CCC(N)=O)NC(=O)[C@H](C)NC(=O)[C@H](CCCCNC(=O)COCCOCCNC(=O)CC[C@H](NC(=O)CCCCCCCCCCCCC(=O)O)C(=O)O)NC(=O)[C@H](CCCN)NC(=O)[C@H](CC(=O)O)NC(=O)[C@H](CC(C)C)NC(=O)[C@](C)(CC(C)C)NC(=O)[C@@H](NC(=O)C(C)(C)NC(=O)[C@@H](NC(=O)[C@H](CC(=O)O)NC(=O)[C@H](CO)NC(=O)[C@@H](NC(=O)[C@](C)(Cc1ccccc1F)NC(=O)[C@@H](NC(=O)CNC(=O)[C@H](CCC(=O)O)NC(=O)C(C)(C)NC(=O)[C@@H](N)Cc1ccc(O)cc1)[C@@H](C)O)[C@@H](C)O)C(C)C)[C@@H](C)CC)[C@@H](C)CC)C(=O)N[C@@H](CCCCNC(=O)COCCOCCNC(=O)CC[C@H](NC(=O)CCCCCCCCCCCCC(=O)O)C(=O)O)C(=O)NCC(=O)NCC(=O)N1CCC[C@H]1C(=O)N[C@@H](CO)C(=O)N[C@@H](CO)C(=O)NCC(=O)N[C@@H](C)C(=O)N1CCC[C@H]1C(=O)N1CCC[C@H]1C(=O)N1CCC[C@H]1C(=O)N[C@@H](CO)C(N)=O) [Example 399] | > 9950 | 0.259 | 91.9 | 0.0186 | 98.4 | 43.6 | 89.7 | > 9950 | 16.2 | 86.8 |
| YXEGTXTSDXXIXLDXKAQXXFIXXLIEGGPSSGAPPPSK (Y-Aib-EGT-αMeF(2F)-TSD-4Pal-Aib-I-αMeL-LD-Orn-K((2-[2-(2-Amino-ethoxy)-ethoxy]-acetyl)2-(γ-Glu)-CO-(CH2)10-CH3)AQ-Aib-Orn-FI-(D-Glu)-αMeY-LIEGGPSSGAPPPSK((2-[2-(2-Amino-ethoxy)-ethoxy]-acetyl)2-(γ-Glu)-CO-(CH2)10-CH3)-NH2) [Example 418] | > 9950 | 0.0603 | 93.7 | 0.00599 | 91 | 1.72 | 98.8 | > 9950 | 0.126 | – |
| Y[Aib]EGT[αMePhe(2-F)]TSDK([AEEA-AEEA-γGlu-Lauroyl])[Aib]I[αMeL]LD[Orn]K([AEEA-AEEA-γGlu-Lauroyl])AQ[Aib][4Pal]FI[dE][αMeY]LIEGGPSSGAPPPS-NH2 [Example 415] | > 9950 | 0.122 | 109 | 0.00991 | 101 | 5.72 | – | > 9950 | 0.492 | – |
| YXEGTXTSDXXIXLDXKAQXKFIXXLIEGGPSSGAPPPS (Y-Aib-EGT-αMeF(2F)-TSD-4Pal-Aib-I-αMeL-LD-Orn-K(PEG3-(γ-Glu)-CO-(CH2)12-CO2H)AQ-Aib-K(PEG3-(γ-Glu)-CO-(CH2)12-CO2H)FI-(D-Glu)-αMeY-LIEGGPSSGAPPPS-NH2) [Example 404] | > 9950 | 0.632 | 94.3 | 0.014 | 101 | 49.1 | – | > 9950 | 1.74 | – |
| YXEGTXTSDXXIXLDXKAQXKFIXXLIEGGPSSGAPPPS (Y-Aib-EGT-αMeF(2F)-TSD-4Pal-Aib-I-αMeL-LD-Orn-K(PEG4-(γ-Glu)-CO-(CH2)12-CO2H)AQ-Aib-K(PEG4-(γ-Glu)-CO-(CH2)12-CO2H)FI-(D-Glu)-αMeY-LIEGGPSSGAPPPS-NH2) [Example 405] | > 9950 | 1.26 | 93.3 | 0.0209 | 100 | 37.5 | 78.1 | > 9950 | 1.23 | – |
| YXEGTXTSDXXIXLDXKAQXTFIXXLIKGGPSSGAPPPS (Y-Aib-EGT-αMeF(2F)-TSD-4Pal-Aib-I-αMeL-LD-Orn-K((2-[2-(2-Amino-ethoxy)-ethoxy]-acetyl)2-(γ-Glu)-CO-(CH2)10-CH3)AQ-Aib-TFI-(D-Glu)-αMeY-LIK((2-[2-(2-Amino-ethoxy)-ethoxy]-acetyl)2-(γ-Glu)-CO-(CH2)10-CH3)GGPSSGAPPPS-NH2) [Example 419] | > 9950 | 0.132 | 113 | 0.00958 | 101 | 7.19 | 97.3 | > 9950 | 0.44 | – |
| YXEGTXTSDKXIXLDXKAQXXFIXXLIEGGPSSGAPPPS (Y-Aib-EGT-αMeF(2F)-TSDK((2-[2-(2-Amino-ethoxy)-ethoxy]-acetyl)2-(γ-Glu)-CO-(CH2)10-CH3)-Aib-I-αMeL-LD-Orn-K((2-[2-(2-Amino-ethoxy)-ethoxy]-acetyl)2-(γ-Glu)-CO-(CH2)10-CH3)AQ-Aib-Orn-FI-(D-Glu)-αMeY-LIEGGPSSGAPPPS-NH2) [Example 417] | > 9950 | 0.0675 | 109 | 0.00651 | 101 | 2.66 | – | > 9950 | 0.201 | – |
| YXEGTXTSDYXIXLDXKAQXKFIXXLIXGGPSSGAPPPS (Y-Aib-EGT-αMeF(2F)-TSDY-Aib-I-αMeL-LD-Orn-K((2-[2-(2-Amino-ethoxy)-ethoxy]-acetyl)2-(γ-Glu)-(10-(4-carboxyphenoxy)decanoyl))AQ-Aib-K((2-[2-(2-Amino-ethoxy)-ethoxy]-acetyl)2-(γ-Glu)-(10-(4-carboxyphenoxy)decanoyl))FI-(D-Glu)-αMeY-LI-Orn-GGPSSGAPPPS-NH2) [Example 409] | > 9950 | 0.188 | 103 | 0.00928 | 99.2 | 8.05 | 97.7 | > 9950 | 0.537 | 84 |
| YXEGTXTSDXXIXLDXKAQXXFIXXLIKGGPSSGAPPPS (Y-Aib-EGT-αMeF(2F)-TSD-4Pal-Aib-I-αMeL-LD-Orn-K((2-[2-(2-Amino-ethoxy)-ethoxy]-acetyl)2-(γ-Glu)-CO-(CH2)10-CH3)AQ-Aib-Orn-FI-(D-Glu)-αMeY-LIK((2-[2-(2-Amino-ethoxy)-ethoxy]-acetyl)2-(γ-Glu)-CO-(CH2)10-CH3)GGPSSGAPPPS-NH2) [Example 414] | > 9950 | 0.119 | – | 0.00961 | 98.4 | 3.24 | – | > 9950 | 0.274 | 92.2 |
| Y[Aib]EGT[αMePhe(2-F)]TSDV[Aib]I[αMeL]LD[Orn]K([AEEA-AEEA-γGlu-Decanoyl(10-(4-HOOC-PhO))])AQ[Aib]K([AEEA-AEEA-γGlu-Decanoyl(10-(4-HOOC-PhO))])FI[dE][αMeY]LI[Orn]GGPSSGAPPPS-NH2 [Example 410] | > 9950 | 0.251 | 94 | 0.0118 | 99.1 | 11 | 93.1 | > 9950 | 1.28 | 86.4 |
| Y[Aib]EGT[αMePhe(2-F)]TSDV[Aib]I[αMeL]LD[Orn]K([AEEA-AEEA-γGlu-C14 diacid])AQ[Aib]K([AEEA-AEEA-γGlu-C14 diacid])FI[dE][αMeY]LI[Orn]GGPSSGAPPPS-NH2 (N-terminus assumed; SMILES CC[C@H](C)[C@H](NC(=O)[C@H](CC(C)C)NC(=O)[C@](C)(Cc1ccc(O)cc1)NC(=O)[C@@H](CCC(=O)O)NC(=O)[C@@H](NC(=O)[C@H](Cc1ccccc1)NC(=O)[C@H](CCCCNC(=O)COCCOCCNC(=O)COCCOCCNC(=O)CC[C@H](NC(=O)CCCCCCCCCCCCC(=O)O)C(=O)O)NC(=O)C(C)(C)NC(=O)[C@H](CCC(N)=O)NC(=O)[C@H](C)NC(=O)[C@H](CCCCNC(=O)COCCOCCNC(=O)COCCOCCNC(=O)CC[C@H](NC(=O)CCCCCCCCCCCCC(=O)O)C(=O)O)NC(=O)[C@H](CCCN)NC(=O)[C@H](CC(=O)O)NC(=O)[C@H](CC(C)C)NC(=O)[C@](C)(CC(C)C)NC(=O)[C@@H](NC(=O)C(C)(C)NC(=O)[C@@H](NC(=O)[C@H](CC(=O)O)NC(=O)[C@H](CO)NC(=O)[C@@H](NC(=O)[C@](C)(Cc1ccccc1F)NC(=O)[C@@H](NC(=O)CNC(=O)[C@H](CCC(=O)O)NC(=O)C(C)(C)NC(=O)[C@@H](N)Cc1ccc(O)cc1)[C@@H](C)O)[C@@H](C)O)C(C)C)[C@@H](C)CC)[C@@H](C)CC)C(=O)N[C@@H](CCCN)C(=O)NCC(=O)NCC(=O)N1CCC[C@H]1C(=O)N[C@@H](CO)C(=O)N[C@@H](CO)C(=O)NCC(=O)N[C@@H](C)C(=O)N1CCC[C@H]1C(=O)N1CCC[C@H]1C(=O)N1CCC[C@H]1C(=O)N[C@@H](CO)C(N)=O) [Example 407] | > 9950 | 0.156 | 100 | 0.0114 | 99.2 | 12.4 | 97.2 | > 9950 | 1.87 | 95.4 |
